Source: CN116178530A

Target: SARS-CoV-2活病毒的刺突蛋白 (SARS-CoV-2) (UniProt P0DTC2)
Experiment: cell-based or functional assay

**Q.** For CB6 (antibody), which 活病毒中和 ND50 (CPE抑制, Vero E6细胞) is on record?
**A.** 0.256 µg/mL
